Columns and labels:
Experiment in all cases: MSD electrochemiluminescence assay; chemokine coated at 1 µg/mL, 7D12A at 3 µg/mL; background = BSA
MDC = target: T1, MDC
T1 construct: also called MDC/CCL22; CCL22
T1 chemokine: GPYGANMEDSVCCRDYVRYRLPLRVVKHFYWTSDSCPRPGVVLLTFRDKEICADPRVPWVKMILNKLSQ

I-309 = target: T2, I-309
T2 construct: also called I-309/CCL1; CCL1
T2 chemokine: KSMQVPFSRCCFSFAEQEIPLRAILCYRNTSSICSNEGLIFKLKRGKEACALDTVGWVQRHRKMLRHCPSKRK

SDF = target: T3, SDF
T3 construct: also called SDF-1/CXCL12; CXCL12
T3 sequence (chemokine, as listed by the source): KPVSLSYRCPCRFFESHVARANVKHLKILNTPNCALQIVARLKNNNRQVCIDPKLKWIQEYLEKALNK

human HCC-1/CCL14/CCL14a = target: T4, human HCC-1/CCL14/CCL14a (human, UniProt Q16627 28-93)
T4 sequence: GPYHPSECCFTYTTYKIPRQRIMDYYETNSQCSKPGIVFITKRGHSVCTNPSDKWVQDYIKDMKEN

MCP-2 = target: T5, MCP-2
T5 construct: also called MCP-2/CCL8; CCL8
T5 chemokine: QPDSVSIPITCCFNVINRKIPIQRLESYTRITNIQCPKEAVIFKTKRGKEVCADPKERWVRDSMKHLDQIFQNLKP

human PARC/CCL18 = target: T6, human PARC/CCL18 (human, UniProt P55774 21-89)
T6 sequence: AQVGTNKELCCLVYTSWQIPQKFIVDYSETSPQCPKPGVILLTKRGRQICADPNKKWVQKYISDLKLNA

Eotaxin = target: T7, Eotaxin
T7 construct: also called Eotaxin/CCL11; CCL11
T7 sequence (chemokine, as listed by the source): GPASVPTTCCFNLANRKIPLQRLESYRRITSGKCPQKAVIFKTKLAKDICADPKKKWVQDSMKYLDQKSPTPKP

ELC = target: T8, ELC
T8 construct: also called ELC/MIP-3β/CCL19; CCL19
T8 chemokine: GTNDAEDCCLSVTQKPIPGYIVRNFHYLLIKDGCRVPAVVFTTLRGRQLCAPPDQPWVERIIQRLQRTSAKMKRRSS

human HCC-2/MIP-1δ/CCL15 = target: T9, human HCC-2/MIP-1δ/CCL15 (human, UniProt Q16663 46-113)
T9 sequence: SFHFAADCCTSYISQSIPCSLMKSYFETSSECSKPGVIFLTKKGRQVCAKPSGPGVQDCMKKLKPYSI

human MCP-1/CCL2 = target: T10, human MCP-1/CCL2 (human, UniProt P13500 24-99)
T10 construct: also called Biotin-MCP1
T10 sequence (P13500 24-99 limits assumed): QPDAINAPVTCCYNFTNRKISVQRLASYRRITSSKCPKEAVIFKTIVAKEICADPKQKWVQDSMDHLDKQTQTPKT

MCP-3 = target: T11, MCP-3
T11 construct: also called MCP-3/CCL7; CCL7
T11 sequence (chemokine, as listed by the source): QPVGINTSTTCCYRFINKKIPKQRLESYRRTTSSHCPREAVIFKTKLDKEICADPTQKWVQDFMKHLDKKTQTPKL

HCC-4 = target: T12, HCC-4
T12 construct: also called HCC-4/CCL16; CCL16
T12 chemokine: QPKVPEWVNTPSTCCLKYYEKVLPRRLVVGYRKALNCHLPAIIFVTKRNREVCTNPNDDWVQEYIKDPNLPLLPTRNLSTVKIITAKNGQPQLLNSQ

Fractalkine = target: T13, Fractalkine
T13 construct: also called Fractalkine/CX3CL1; CX3CL1
T13 chemokine: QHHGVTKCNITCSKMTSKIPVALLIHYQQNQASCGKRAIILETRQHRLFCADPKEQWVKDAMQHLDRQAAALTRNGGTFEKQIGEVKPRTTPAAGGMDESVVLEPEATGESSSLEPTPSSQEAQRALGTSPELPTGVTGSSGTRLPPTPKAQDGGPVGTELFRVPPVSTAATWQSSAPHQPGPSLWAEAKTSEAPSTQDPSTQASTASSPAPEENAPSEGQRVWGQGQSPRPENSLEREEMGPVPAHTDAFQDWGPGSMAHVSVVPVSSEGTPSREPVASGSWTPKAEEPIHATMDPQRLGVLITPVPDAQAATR

Measured: binding result

B1: monoclonal antibody 7D12A (antibody, V domains shown)
VH: EVHLQESGPSLVKPSQTLSLTCSVTGDSITNGYWNWIRKFPGNKLDYMGYISYDGNTYYNPSLKSRFSITRDTSKNQYYLQLNSVTTEDTATYYCSRGDYGTYVMDYWGQGTSVTVSS
VL: NIVLTQSPVSLAVSLGQRATISCRASESVDSHGNSFMHWYQQKPGQPPKLLIYLASNLESGVPARFTGGGSGSDFTLTIDPVEADDVGTYYCQQNNEDPYTFGGGTKLEIK
notes: also called MAb 7D12A
no binding (tested: 3 µg/mL): all assays above

— patent US20150166647A1 (VLST, published 2015)
